Source: US20040248233A1 (Dana-Farber, published 2004)
Ends that are not written are not given here.

Experiments:
[1] = biological target: T1, pVHL (HA-tagged: 35S-HA-pVHL in vitro translate, or HA-pVHL produced in ts20 and WT8 cells) (UniProt P40337 1-213); assay: biotinylated peptide, pVHL binding
T1 construct: Also used for sentences that say only 'pVHL'; In cell lysates pVHL is in complex with elongin B, elongin C and Cul2; also called 35S-labeled pVHL; HA-VHL; not shown: HA tag

[2] = biological target: T1, pVHL (HA-tagged: 35S-HA-pVHL in vitro …); assay: biotinylated peptide on avidin Sepharose, 35S-pVHL
[3] = biological target: T2, GST-VHL, elongin B, elongin C complexes (GST-VBC), immobilized on glutathione sepharose (UniProt P40337 54-213; Q15370 1-118; Q15369 17-112); assay: capture with immobilized GST-VBC
T2 construct: also called VBC-GST; GST-pVHL, elongin B, elongin C complexes

T1 sequence (P40337 whole entry): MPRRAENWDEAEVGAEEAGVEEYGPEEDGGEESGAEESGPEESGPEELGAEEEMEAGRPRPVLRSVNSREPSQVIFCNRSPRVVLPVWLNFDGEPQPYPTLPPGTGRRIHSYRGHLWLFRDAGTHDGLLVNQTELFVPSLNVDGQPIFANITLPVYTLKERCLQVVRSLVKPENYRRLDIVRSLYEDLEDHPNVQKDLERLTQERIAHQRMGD

DLDLEALAPYIPADDDFQLR (peptide, UniProt Q16665 556-575, looked up, also: biotinylated (position not given here), also called double alanine substitution) [biotinylated HIF (556-575) peptide with Met561 and Met568 converted to alanine]
binding result [1]: binds

DLDLEMLAPYIPADDDFQLR (peptide, UniProt Q16665 556-575, looked up, also: biotinylated (position not given here)) [biotinylated HIF (556-575) peptide with the single substitution Met568 to alanine]
binding result [1]: binds

DLDLEMLAAYIPMDDDFQLR (peptide, UniProt Q16665 556-575, looked up, also: biotinylated (position not given here)) [biotinylated HIF1α (556-575) peptide Pro564Ala]
binding result [2]: no binding

B1: Pro564Ala Gal4-HA-HIF1α (530-652) (other)
chain: EFKLELVEKLFAEDTEAKNPFSTQDTDLDLEMLAAYIPMDDDFQLRSFDQLSPLESSSASPESASPQSTVTVFQQTQIQEPTANATTTTATTDELKTVTKDRMEDIKILIASPSPTHIHKETT
notes: range 530-652; also called Gal4-ODD Pro564Ala; not shown: Gal4 moiety and HA tag
binding result [3]: no binding

B2: Leu562Ala Gal4-HA-HIF1α (530-652) (other)
chain: EFKLELVEKLFAEDTEAKNPFSTQDTDLDLEMAAPYIPMDDDFQLRSFDQLSPLESSSASPESASPQSTVTVFQQTQIQEPTANATTTTATTDELKTVTKDRMEDIKILIASPSPTHIHKETT
notes: range 530-652; also called Gal4-ODD Leu562Ala; not shown: Gal4 moiety and HA tag
binding result [3]: no binding

DLDLEALAPYIPMDDDFQLR (peptide, UniProt Q16665 556-575, looked up, also: biotinylated (position not given here)) [biotinylated HIF (556-575) peptide with the single substitution Met561 to alanine]
binding result [1]: binds
